{"source": "patent US20140087995A1", "about": "(published 2014)", "binders": {"B1": {"name": "N^ε1-[2-[2-[2-[[(4S)-4-carboxy-4-(19-carboxynonadecanoylamino)butanoyl]amino]ethoxy]ethoxy]acetyl]-[Arg14,Arg17,Pro21,Pro27]-h-amylin (peptide)", "peptide": "K([AEEA-γGlu-C20 diacid])CNTATCATQRLARFLRHSSPNFGAIPSSTNVGSNTY-NH2", "modifications": "disulfide 2-7; N-terminus assumed", "SMILES": "CC[C@H](C)[C@H](NC(=O)[C@H](C)NC(=O)CNC(=O)[C@H](Cc1ccccc1)NC(=O)[C@H](CC(N)=O)NC(=O)[C@@H]1CCCN1C(=O)[C@H](CO)NC(=O)[C@H](CO)NC(=O)[C@H](Cc1c[nH]cn1)NC(=O)[C@H](CCCNC(=N)N)NC(=O)[C@H](CC(C)C)NC(=O)[C@H](Cc1ccccc1)NC(=O)[C@H](CCCNC(=N)N)NC(=O)[C@H](C)NC(=O)[C@H](CC(C)C)NC(=O)[C@H](CCCNC(=N)N)NC(=O)[C@H](CCC(N)=O)NC(=O)[C@@H](NC(=O)[C@H](C)NC(=O)[C@@H]1CSSC[C@H](NC(=O)[C@@H](N)CCCCNC(=O)COCCOCCNC(=O)CC[C@H](NC(=O)CCCCCCCCCCCCCCCCCCC(=O)O)C(=O)O)C(=O)N[C@@H](CC(N)=O)C(=O)N[C@@H]([C@@H](C)O)C(=O)N[C@@H](C)C(=O)N[C@@H]([C@@H](C)O)C(=O)N1)[C@@H](C)O)C(=O)N1CCC[C@H]1C(=O)N[C@@H](CO)C(=O)N[C@@H](CO)C(=O)N[C@H](C(=O)N[C@@H](CC(N)=O)C(=O)N[C@H](C(=O)NCC(=O)N[C@@H](CO)C(=O)N[C@@H](CC(N)=O)C(=O)N[C@H](C(=O)N[C@@H](Cc1ccc(O)cc1)C(N)=O)[C@@H](C)O)C(C)C)[C@@H](C)O", "notes": "Analogue of human amylin; also called compound 82"}, "B2": {"name": "N^ε1-[2-[2-[2-[[(4S)-4-carboxy-4-(19-carboxynonadecanoylamino)butanoyl]amino]ethoxy]ethoxy]acetyl]-[Arg17,Pro21,Pro27,Arg34]-h-amylin (peptide)", "peptide": "K([AEEA-γGlu-C20 diacid])CNTATCATQRLANFLRHSSPNFGAIPSSTNVGRNTY-NH2", "modifications": "disulfide 2-7; N-terminus assumed", "SMILES": "CC[C@H](C)[C@H](NC(=O)[C@H](C)NC(=O)CNC(=O)[C@H](Cc1ccccc1)NC(=O)[C@H](CC(N)=O)NC(=O)[C@@H]1CCCN1C(=O)[C@H](CO)NC(=O)[C@H](CO)NC(=O)[C@H](Cc1c[nH]cn1)NC(=O)[C@H](CCCNC(=N)N)NC(=O)[C@H](CC(C)C)NC(=O)[C@H](Cc1ccccc1)NC(=O)[C@H](CC(N)=O)NC(=O)[C@H](C)NC(=O)[C@H](CC(C)C)NC(=O)[C@H](CCCNC(=N)N)NC(=O)[C@H](CCC(N)=O)NC(=O)[C@@H](NC(=O)[C@H](C)NC(=O)[C@@H]1CSSC[C@H](NC(=O)[C@@H](N)CCCCNC(=O)COCCOCCNC(=O)CC[C@H](NC(=O)CCCCCCCCCCCCCCCCCCC(=O)O)C(=O)O)C(=O)N[C@@H](CC(N)=O)C(=O)N[C@@H]([C@@H](C)O)C(=O)N[C@@H](C)C(=O)N[C@@H]([C@@H](C)O)C(=O)N1)[C@@H](C)O)C(=O)N1CCC[C@H]1C(=O)N[C@@H](CO)C(=O)N[C@@H](CO)C(=O)N[C@H](C(=O)N[C@@H](CC(N)=O)C(=O)N[C@H](C(=O)NCC(=O)N[C@@H](CCCNC(=N)N)C(=O)N[C@@H](CC(N)=O)C(=O)N[C@H](C(=O)N[C@@H](Cc1ccc(O)cc1)C(N)=O)[C@@H](C)O)C(C)C)[C@@H](C)O", "notes": "Analogue of human amylin; also called compound 78"}, "B3": {"name": "N^ε1-[2-[2-[2-[[(4S)-4-carboxy-4-(19-carboxynonadecanoylamino)butanoyl]amino]ethoxy]ethoxy]acetyl]-[Arg17,Pro21,Pro27,His34]-h-amylin (peptide)", "peptide": "K([AEEA-γGlu-C20 diacid])CNTATCATQRLANFLRHSSPNFGAIPSSTNVGHNTY-NH2", "modifications": "disulfide 2-7; N-terminus assumed", "SMILES": "CC[C@H](C)[C@H](NC(=O)[C@H](C)NC(=O)CNC(=O)[C@H](Cc1ccccc1)NC(=O)[C@H](CC(N)=O)NC(=O)[C@@H]1CCCN1C(=O)[C@H](CO)NC(=O)[C@H](CO)NC(=O)[C@H](Cc1c[nH]cn1)NC(=O)[C@H](CCCNC(=N)N)NC(=O)[C@H](CC(C)C)NC(=O)[C@H](Cc1ccccc1)NC(=O)[C@H](CC(N)=O)NC(=O)[C@H](C)NC(=O)[C@H](CC(C)C)NC(=O)[C@H](CCCNC(=N)N)NC(=O)[C@H](CCC(N)=O)NC(=O)[C@@H](NC(=O)[C@H](C)NC(=O)[C@@H]1CSSC[C@H](NC(=O)[C@@H](N)CCCCNC(=O)COCCOCCNC(=O)CC[C@H](NC(=O)CCCCCCCCCCCCCCCCCCC(=O)O)C(=O)O)C(=O)N[C@@H](CC(N)=O)C(=O)N[C@@H]([C@@H](C)O)C(=O)N[C@@H](C)C(=O)N[C@@H]([C@@H](C)O)C(=O)N1)[C@@H](C)O)C(=O)N1CCC[C@H]1C(=O)N[C@@H](CO)C(=O)N[C@@H](CO)C(=O)N[C@H](C(=O)N[C@@H](CC(N)=O)C(=O)N[C@H](C(=O)NCC(=O)N[C@@H](Cc1c[nH]cn1)C(=O)N[C@@H](CC(N)=O)C(=O)N[C@H](C(=O)N[C@@H](Cc1ccc(O)cc1)C(N)=O)[C@@H](C)O)C(C)C)[C@@H](C)O", "notes": "Analogue of human amylin; also called compound 76"}, "B4": {"name": "N^ε1-[2-[2-[2-[[(4S)-4-carboxy-4-(19-carboxynonadecanoylamino)butanoyl]amino]ethoxy]ethoxy]acetyl]-[Arg17,Pro21,Pro27,Pro28,Pro31]-h-amylin (peptide)", "peptide": "K([AEEA-γGlu-C20 diacid])CNTATCATQRLANFLRHSSPNFGAIPPSTPVGSNTY-NH2", "modifications": "disulfide 2-7", "notes": "Analogue of human amylin; also called compound 53"}}, "note": "Numbered stars: 1 amine (or outer) side, 2 acyl side, 3 side chain; on linkers, the order of the positions; unused ones are H or OH. Bridge positions count the residues as written; N and C are the ends. Side chains are listed from the residue outwards. Ends that are not written are not given here. * marks the point of attachment. C20 diacid = O=C(O)CCCCCCCCCCCCCCCCCCC(=O)*; γGlu = O=C(O)[C@H](CCC(=O)[*:2])N[*:1]; AEEA = NCCOCCOCC(=O)O"}
{"target": "T1, rat calcitonin receptor (rat, UniProt P32214 25-516)", "T1 construct": "whole, on cells; Membranes prepared from transiently transfected BHK tk'ts 13 cells (Assay VIII); also called rCTR; rCT", "T1 sequence (looked up)": "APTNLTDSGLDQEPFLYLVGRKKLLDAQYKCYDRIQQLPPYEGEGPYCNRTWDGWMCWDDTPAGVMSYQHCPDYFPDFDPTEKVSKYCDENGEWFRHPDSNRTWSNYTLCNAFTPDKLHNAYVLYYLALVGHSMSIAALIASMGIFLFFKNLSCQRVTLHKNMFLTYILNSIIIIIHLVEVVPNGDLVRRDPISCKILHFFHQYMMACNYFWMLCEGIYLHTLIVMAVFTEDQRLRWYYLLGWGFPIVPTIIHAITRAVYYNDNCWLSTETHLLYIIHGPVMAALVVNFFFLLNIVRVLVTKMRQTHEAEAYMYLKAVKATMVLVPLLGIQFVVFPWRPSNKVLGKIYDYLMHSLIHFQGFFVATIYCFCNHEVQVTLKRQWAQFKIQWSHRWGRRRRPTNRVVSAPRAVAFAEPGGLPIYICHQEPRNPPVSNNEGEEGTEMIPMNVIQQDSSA", "assay": "ratio of binding IC50s: rat calcitonin receptor / rat amylin receptor (reference)"}
{"binder": "B1", "Ratio rCT/rAmylin binding": 87}
{"binder": "B2", "Ratio rCT/rAmylin binding": 69.9}
{"binder": "B3", "Ratio rCT/rAmylin binding": 56.8}
{"binder": "B4", "Ratio rCT/rAmylin binding": 130}
{"target": "T2, rat amylin receptor (rat calcitonin receptor + rat RAMP 3) (rat, UniProt P32214 25-516; Q9JJ73 23-147)", "T2 construct": "whole, on cells; Membranes prepared from transiently transfected BHK tk'ts 13 cells (Assay VI); also called rAmylin-R; rAmylin", "T2 sequence (looked up) 1": "T1 sequence (looked up)", "T2 sequence (looked up) 2": "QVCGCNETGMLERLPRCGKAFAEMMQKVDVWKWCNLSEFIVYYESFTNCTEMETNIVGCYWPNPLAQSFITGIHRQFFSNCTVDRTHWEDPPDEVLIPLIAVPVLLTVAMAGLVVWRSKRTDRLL", "assay": "SPA competition vs 125I-rat amylin, membranes of BHK cells with rat calcitonin receptor + rat RAMP3 (Assay VI)", "description": "The binding assay was performed using scintillation proximity assay (SPA) beads (RPNQ0001) from PerkinElmer and cell membranes from the Amylin 3(a)/CRE-luc cells (as described in Assay (II)) were used. Membranes were prepared in the following way; the cells were rinsed with PBS and incubated with Versene for approximately 5 min before harvesting. The cells were flushed with PBS and the cell-suspension was centrifuged for 5 min at 1000 rpm. Cells were homogenized (ultrathurrax) in a buffer containing 20 mM Na-HEPES and 10 mM EDTA (pH 7.4) and centrifuged at 20.000 rpm for 15 min. The resulting pellet was resuspended, homogenized and centrifuged (20.000 rpm, 15 min) in a buffer containing 20 mM Na-HEPES and 0.1 mM EDTA (pH 7.4, buffer 2). The resulting pellet was resuspended in buffer 2 and protein concentration was measured (BCA protein Assay, Pierce). The homogenate was kept cold during the whole procedure. The membranes were kept at −80° C. until use. The assay was performed in a 384 well Optiplate (PerkinElmer) in a total volume of 40 ul. Membranes were mixed with SPA beads. Final concentration of membranes 35 ng/μL final and SPA beads was 0.05 mg/well. Test-compounds were dissolved in DMSO and further diluted in assay buffer (50 mM Hepes, pH 7.4, 1 mM CaCl2, 5 mM MgCl₂, 0.1% OA and 0.02% Tween20). […] The final mixture was incubated with shaking at 400 rpm for 120 min at 25° C. prior to centrifugation (1500 rpm, 10 min). Samples were analyzed on TopCounter™ (Packard). The IC₅₀ was calculated using (one site binding competition analysis) GraphPad Prism5 as a measure of receptor affinity.\nCells were grown in DMEM with 10% FBS and 1% Pen/Strep. Approximately 48 hours after transfection, the cells were harvested and membranes were prepared.", "units": {"IC50": "nM"}}
{"binder": "B1", "IC50": 1.64}
{"binder": "B2", "IC50": 1.3}
{"binder": "B3", "IC50": 0.686}
{"binder": "B4", "IC50": 0.084}
{"target": "T1, rat calcitonin receptor", "assay": "SPA competition vs 125I-calcitonin, membranes of BHK cells with rat calcitonin receptor (Assay VIII)", "units": {"IC50": "nM"}}
{"binder": "B1", "IC50": 143}
{"binder": "B2", "IC50": 90.6}
{"binder": "B3", "IC50": 38.9}
{"binder": "B4", "IC50": 10.9}
{"target": "T3, human calcitonin receptor (human, UniProt P30988 25-474)", "T3 construct": "whole, on cells; Membranes prepared from a stably transfected BHK cell line (Assay VII); also called hCTR; hCT", "T3 sequence (looked up)": "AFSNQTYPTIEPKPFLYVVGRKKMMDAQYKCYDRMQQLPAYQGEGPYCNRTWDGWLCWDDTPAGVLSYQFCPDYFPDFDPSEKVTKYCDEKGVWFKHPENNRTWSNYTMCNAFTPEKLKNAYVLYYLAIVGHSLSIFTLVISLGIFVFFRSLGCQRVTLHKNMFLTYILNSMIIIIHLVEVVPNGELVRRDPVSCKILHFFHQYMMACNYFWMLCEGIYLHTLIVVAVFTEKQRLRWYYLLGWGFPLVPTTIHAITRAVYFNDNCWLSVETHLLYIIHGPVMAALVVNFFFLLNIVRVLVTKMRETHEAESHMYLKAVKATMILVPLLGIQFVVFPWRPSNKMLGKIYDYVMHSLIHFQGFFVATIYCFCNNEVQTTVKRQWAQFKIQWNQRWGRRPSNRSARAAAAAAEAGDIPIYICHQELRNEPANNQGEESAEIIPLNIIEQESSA", "assay": "ratio of binding IC50s: human calcitonin receptor / human amylin receptor (reference)", "description": "The resulting pellet was resuspended, homogenized and centrifuged (20.000 rpm, 15 min) in a buffer containing 20 mM Na-HEPES and 0.1 mM EDTA (pH 7.4, buffer 2). The resulting pellet was resuspended in buffer 2 and protein concentration was measured (BCA protein Assay, Pierce). The homogenate was kept cold during the whole procedure. The membranes were kept at −80° C. until use. The assay was performed in a 384 well Optiplate (PerkinElmer) in a total volume of 40 ul. Membranes were mixed with SPA beads. Final concentration of membranes 35 ng/μL final and SPA beads was 0.05 mg/well. Test-compounds were dissolved in DMSO and further diluted in assay buffer (50 mM Hepes, pH 7.4, 1 mM CaCl2, 5 mM MgCl₂, 0.1% OA and 0.02% Tween20). […] The final mixture was incubated with shaking at 400 rpm for 120 min at 25° C. prior to centrifugation (1500 rpm, 10 min). Samples were analyzed on TopCounter™ (Packard). The IC₅₀ was calculated using (one site binding competition analysis) GraphPad Prism5 as a measure of receptor affinity.\nMembranes were prepared in the following way; the cells were rinsed with PBS and incubated with Versene for approximately 5 min before harvesting. The cells were flushed with PBS and the cell-suspension was centrifuged for 5 min at 1000 rpm. Cells were homogenized (Ultrathurrax) in a buffer containing 20 mM Na-HEPES and 10 mM EDTA (pH 7.4) and centrifuged at 20.000 rpm for 15 min. The resulting pellet was resuspended, homogenized and centrifuged (20.000 rpm, 15 min) in a buffer containing 20 mM Na-HEPES and 0.1 mM EDTA (pH 7.4, buffer 2). The resulting pellet was resuspended in buffer 2 and protein concentration was measured (BCA protein Assay, Pierce). The homogenate was kept cold during the whole procedure. The membranes were kept at −80° C. until use. Assay was performed in a 384 well Optiplate (PerkinElmer) in a total volume of 40 ul. Membranes were mixed with SPA beads."}
{"binder": "B1", "Ratio hCT/hAmylin binding": 140}
{"binder": "B2", "Ratio hCT/hAmylin binding": 60.7}
{"binder": "B3", "Ratio hCT/hAmylin binding": 80}
{"binder": "B4", "Ratio hCT/hAmylin binding": 104}
